Data published in patent US5326551A, “Nuclear imaging uses of radio-labelled atrial natriuretic factor” (L'Istitut de Recherches Cliniques de Montreal, priority 1991, dated 1994).

Experiments:
[1] = adult males of approximately 75 kg, bolus injection; cited from earlier work
[2] = Gamma camera imaging of radio-labelled ANF uptake in green vervet monkey; assay type: in vivo
Procedure: ANF 99-126, rat form: 5 μg) was labelled by the inventors with ^125 I (1 mCi, obtained from commercial sources) using the lactoperoxidase method. The labelled compound was purified on HPLC (C-18 μBondapak™ column) by known methods. 250 μCi of the ^125 I ANF was administered to a 7 kg male monkey of green vervet species, as an intravenous bolus, under pentobarbital anesthesia. Prior to the experiment, the monkey was kept in a single cage with free access to food and water. The animal was subjected to data acquisition for 60 minutes using, as the scintillation detector, a gamma camera attached to a computer. Images and computer data were acquired at 10 second intervals.
A 7 kg anesthetized monkey which had been previously dehydrated for 18 hours was injected with an intravenous bolus injection of 80 μCi of ^131 I-ANF. […] Serial images (0-5, 5-10, 10-20 min.) and time activity curves were done and analyzed of the following regions of interest: the lungs, the kidneys, the upper and lower abdomen. […]
Serial images (0-7, 7-13, 13-20, 20-26, 26-30 min.) and time-activity curves were obtained and analyzed of the regions of interest over the lungs, kidneys, upper and lower abdomen. […]
The maximum and minimum levels of radioactivity over the 3 hour test period are given in each case.

[3] = Gamma camera study of radio-labelled ANF in rabbits; assay type: in vivo, rabbit
Procedure: A gamma camera study was carried out using ^131 I-ANF in domestic rabbits. The animals were sedated using Nembutal and the ANF was injected via the marginal ear vein. Camera images were taken at 100,000 count intervals up to 2.5 hours post injection.
A subsequent study with ^123 I-ANF in New Zealand White rabbits was also carried out. The animals were sedated with Nembutal and ANF was injected via the marginal ear vein. Camera images were taken at 100,000 intervals up to 1.25 hours post injection.

| Molecule | bolus dose giving a medically effective hypotensive effect [1] | uptake of radio-label ([2]; 7 kg monkey dehydrated for 18 hours, 80 μCi intravenous bolus) | uptake of radio-label compared with dehydrated animal ([2]; 7 kg monkey hydrated with 120 cc saline, 65 μCi intravenous) | most prominent organ ([3]; lung also visible) | time of rapid accumulation in the kidney ([3]; post-injection, marginal ear vein, Nembutal sedation) |
| --- | --- | --- | --- | --- | --- |
| CC[C@H](C)[C@@H]1NC(=O)[C@H](CCCNC(=N)N)NC(=O)[C@H](CC(=O)O)NC(=O)[C@H](CCSC)NC(=O)[C@H](CCCNC(=N)N)NC(=O)CNC(=O)CNC(=O)[C@H](Cc2ccccc2)NC(=O)[C@@H](NC(=O)[C@H](CO)NC(=O)[C@H](CO)NC(=O)[C@H](CCCNC(=N)N)NC(=O)[C@H](CCCNC(=N)N)NC(=O)[C@H](CC(C)C)NC(=O)[C@@H](N)CO)CSSC[C@@H](C(=O)N[C@@H](CC(N)=O)C(=O)N[C@@H](CO)C(=O)N[C@@H](Cc2ccccc2)C(=O)N[C@@H](CCCNC(=N)N)C(=O)N[C@@H](Cc2ccc(O)cc2)C(=O)O)NC(=O)CNC(=O)[C@H](CC(C)C)NC(=O)CNC(=O)[C@H](CO)NC(=O)[C@H](CCC(N)=O)NC(=O)[C@H](C)NC(=O)CNC1=O [ANF, atrial natriuretic factor] | greater than 50 μg | – | – | – | – |
| ^131 I-ANF: human ANF (99-126) with methionine in position 110 labelled with ^131 I; in Example 7 rat or human ANF | – | rapid uptake of radio-label particularly by the kidneys and lungs | lesser uptake of radio-label in both kidney and lung | kidney was the most prominent organ | 3 min |
